From patent publication US20240209114A1 (JIANGSU HENGRUI PHARMACEUTICALS, published 2024)

Experiments:
[1] = biological target: T1, MASP2 in human serum (human, UniProt O00187 16-686); test: cell-based or functional assay
[2] = biological target: T1, MASP2 in human serum; test: cell-based or functional assay; remark: listed apart in the source
[3] = biological target: MASP2 in monkey serum (monkey); test: cell-based or functional assay
[4] = biological target: MASP2 in mouse serum (mouse, UniProt Q91WP0 20-685); test: cell-based or functional assay
[5] = biological target: Murine MASP2A (S632A) protein (murine, UniProt Q91WP0 16-685); test: SPR (Biacore 8K), antibody captured on anti-human Fc chip, antigen as analyte, 1:1 fit
Experimental: The binding properties of the anti-MASP2 antibodies were determined by the method of Biacore. […] An anti-human Fc IgG capture chip was used to capture the antibodies, then antigens with different concentrations were used as a mobile phase for the determination, and finally curve fitting was performed according to a 1:1 mode to obtain affinity values.

Murine MASP2A (S632A) protein, sequence (Q91WP0 other isoform, or with tags, fused parts or gaps S632A S632A): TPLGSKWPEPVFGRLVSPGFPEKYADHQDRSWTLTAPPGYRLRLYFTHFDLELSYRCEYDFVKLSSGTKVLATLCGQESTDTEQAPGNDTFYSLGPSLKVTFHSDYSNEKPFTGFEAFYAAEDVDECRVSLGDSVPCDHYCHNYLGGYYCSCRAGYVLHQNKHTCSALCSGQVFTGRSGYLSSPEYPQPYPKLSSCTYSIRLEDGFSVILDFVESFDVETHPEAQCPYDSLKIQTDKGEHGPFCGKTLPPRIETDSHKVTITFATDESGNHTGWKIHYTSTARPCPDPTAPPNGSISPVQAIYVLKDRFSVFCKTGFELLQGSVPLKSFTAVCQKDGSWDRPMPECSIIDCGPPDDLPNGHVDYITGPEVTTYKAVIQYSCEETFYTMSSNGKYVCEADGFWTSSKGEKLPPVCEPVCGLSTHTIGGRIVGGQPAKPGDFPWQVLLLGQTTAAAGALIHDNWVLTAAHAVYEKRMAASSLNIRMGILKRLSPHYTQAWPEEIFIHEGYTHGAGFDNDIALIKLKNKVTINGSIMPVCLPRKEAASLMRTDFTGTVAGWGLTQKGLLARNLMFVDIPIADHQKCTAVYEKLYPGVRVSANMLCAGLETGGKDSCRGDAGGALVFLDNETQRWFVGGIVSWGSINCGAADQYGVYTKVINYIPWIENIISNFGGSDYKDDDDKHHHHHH
T1 sequence (O00187 16-686 limits assumed): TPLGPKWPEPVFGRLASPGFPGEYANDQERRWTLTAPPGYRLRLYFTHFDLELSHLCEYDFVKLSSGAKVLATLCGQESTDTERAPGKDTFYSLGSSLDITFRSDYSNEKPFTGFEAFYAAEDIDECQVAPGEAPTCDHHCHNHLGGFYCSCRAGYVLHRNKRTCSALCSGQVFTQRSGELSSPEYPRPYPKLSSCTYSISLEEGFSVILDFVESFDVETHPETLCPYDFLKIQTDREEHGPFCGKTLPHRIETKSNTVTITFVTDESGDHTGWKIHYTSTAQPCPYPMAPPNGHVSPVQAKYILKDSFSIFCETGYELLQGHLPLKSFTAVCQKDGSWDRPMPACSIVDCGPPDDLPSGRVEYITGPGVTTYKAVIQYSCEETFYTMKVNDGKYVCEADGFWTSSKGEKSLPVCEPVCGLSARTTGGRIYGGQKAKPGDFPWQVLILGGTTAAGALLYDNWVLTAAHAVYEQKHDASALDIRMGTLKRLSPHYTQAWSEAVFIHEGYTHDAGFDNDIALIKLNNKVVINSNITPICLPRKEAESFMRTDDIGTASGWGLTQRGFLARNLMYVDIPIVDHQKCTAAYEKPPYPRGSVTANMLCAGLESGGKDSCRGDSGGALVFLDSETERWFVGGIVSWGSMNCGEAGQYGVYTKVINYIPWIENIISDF
MASP2 in mouse serum, sequence (Q91WP0 20-685 limits assumed): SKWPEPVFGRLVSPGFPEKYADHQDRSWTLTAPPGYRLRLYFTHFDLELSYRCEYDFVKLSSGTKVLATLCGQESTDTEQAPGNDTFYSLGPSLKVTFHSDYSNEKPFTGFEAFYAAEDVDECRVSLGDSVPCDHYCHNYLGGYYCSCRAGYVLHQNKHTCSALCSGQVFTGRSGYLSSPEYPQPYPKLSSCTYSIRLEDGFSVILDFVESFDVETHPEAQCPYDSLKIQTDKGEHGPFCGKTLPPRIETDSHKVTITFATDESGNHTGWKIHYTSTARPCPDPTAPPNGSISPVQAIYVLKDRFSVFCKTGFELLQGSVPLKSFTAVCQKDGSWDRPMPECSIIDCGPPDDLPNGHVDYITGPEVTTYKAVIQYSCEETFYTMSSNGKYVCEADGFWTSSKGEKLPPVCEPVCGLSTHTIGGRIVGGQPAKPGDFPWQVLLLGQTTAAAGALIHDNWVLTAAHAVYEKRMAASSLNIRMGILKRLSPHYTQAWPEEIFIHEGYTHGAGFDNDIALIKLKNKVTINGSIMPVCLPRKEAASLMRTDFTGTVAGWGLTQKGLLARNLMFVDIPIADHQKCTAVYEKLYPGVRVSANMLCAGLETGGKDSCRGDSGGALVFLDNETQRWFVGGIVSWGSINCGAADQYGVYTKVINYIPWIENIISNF

B1: 11165 (antibody, human IgG4 S228P, lambda, V domains shown)
VH: QVQLQESGPGLVKPSETLSLTCTVSGGSISSGEYFWGWIRQPPGKGLEWIGSIYYSGSTYYNPSLKSRVTISVDTSKNQFSLKLSSVTAADTAVYYCARSLKAARRDAFDIWGQGTTVTVSS
VL: QSVLTQPPSVSVSPGQTASITCSGHKLGDKYAYWYQQKPGQSPVLVIYQDTKRPSGIPERFSGFNSGNTATLTISGTQATDEADYYCQTWDSSTGVFGAGTKVTVLG
notes: Fully human antibody from phage display; Full-length human IgG4 (S228P), lambda light chain
[1]
  IC50 (µg/mL), inhibition of the lectin pathway in 1% human serum (C4c deposition on mannan): 0.499 µg/mL
[2]
  90% human serum IC50 (µg/mL), inhibition of the lectin pathway (C4c deposition on mannan): 0.93 µg/mL
[3]
  90% monkey serum IC50 (µg/mL), inhibition of the lectin pathway (C4c deposition on mannan): 21.1 µg/mL
[4]
  90% mouse serum IC50 (µg/mL), inhibition of the lectin pathway (C4c deposition on mannan): 4.26 µg/mL
[5]
  Kd: 0.435 nM
  koff: 0.00192 s⁻¹
  kon: 4.41e+06 M⁻¹ s⁻¹
